Assay results: the DeepSol protein solubility set

Assay: soluble on expression in E. coli; label from the status in PepcDB or PDB records
In the case of “MSLKTHTLPLLLSCTLFLIGACTSMPPEIRNFSAVDIPYQPVSQNAETYKDAPVRWGGTVIEVENETDFSLMQVLFHPLDRSGYPETRKPGEGRFAVEINEFLDPAIYTKGVEVTVIGTVKGNIERTIGNKTIHIPLITAKTIHLWPQAYREDNLYRYGPYPGYYGYGYPFFYNGYYRPYRFWWEGHHHHHH”, the “soluble on expression in E. coli” value is reported as “not soluble”. For “MSLKITKLEKKKRLYLMELDNGDKCYITEDTIVRFMLSRDKVISEEELKEIQDFAQFSYGKNLALYHLSFKARTEKEVREYLKKYDIDKNIVSQVIANLKEDKWINDGQYAYAIINTNQLSGDKGPYVLTQKLAQKGISKSTIEENLKEFDFSEVAQRVANKLLKKYEGKLPARALQDKIIQNLTNKGFSYSDAKIAFDDLDSQVDQETTQELIFKELDKQYTKYARKYEGYELKQRLTQVLARKGYDFSDIASALREYLEGHHHHHH”, the “soluble on expression in E. coli” value was “soluble”. For “MSLNGKNLTLNVPVTAAVPGARGIKADCITDGACTESSTYFQKSSNAATGSPYMFTIDMQKEAVISEINLSTRLVNGSEAAYKYTIEGSRDGKSYKMLVDGKLNWQVGFLILNIEDPSLYRYLRLRVYGVVNVHKNNSAMWADGIYEFAAYGKEGHHHHHH”, the “soluble on expression in E. coli” value was “not soluble”. In the case of “LINETSRRLNQRLTLTDTMNDLAVRMAESFQAEEVGFFHIDHFENLTLLPGSTAFFKEAKPSDFYNELKEKLYEGEKGVFIGNGQSVFGKAGYGSLMAAPMIQNDRLLGFAVLLKQELYAFTFEMYKLFQALIHHATLAVTNSMLRDRLE”, the “soluble on expression in E. coli” value is reported as “soluble”. For “MTRTPLTLEQLNALSDDAFTEHFAGVLEHSPHYARRAAAGRPFADVEEVAAAFARAVAADEPGAQVQLIRAHPDLAGKAALAGELTAESASEQTSAGLDRLSPEEYAEFQRLNAAYHERFGLPYVVCVRENTKDTIFEGARRRLTHTQEEEQAAALHEIGRIARLRILDLVQEGRQEKRMDGRLIRIPLEHHHHHH”, the “soluble on expression in E. coli” value was “soluble”. In the case of “MGTFREEGSVSSGTKQEFHTGKLVTTKGDKELLIDNEKVTSGHTTTTRRSCSKVITKTVTNADGRTETTKEVVKSEDGSDCGDADFDWHHTFPSRGNLDDFFHRDKDDFFTRSSHEFDGRTGLAPEFAALGESGSSSSKTSTHSKQFVSSSTTVNRGGSAIESKHF”, the “soluble on expression in E. coli” value is reported as “soluble”. For “MTNSSNLIDSLEVYVLNNPDEVKPHWVSHFIVPTANELLIKIKNKDGHSGFGLATSYTDIAPIIKPFSNGLQDLIIGEDPFCPEKIYEKIFKLTDTRLSSEKGWSREALIRISAALDIACWDLIGKASNIPLYKLFGGFRNKIPVYVTCAYYRDGKDEKELRDEIKKLVNIGHKSFKVKVGGLSIKEDVKRLEIIRDEIGDQKGLMIDVNRAWDLKTAIEGVKEFEKFKPTWIEEPVRWEDDRRTLKLLSKQTKIPLSGGESEVTIYGCRSMIEEDAIQILQFDCTMFGGFTNGKKLSALCELNHIDVAPHHDCYIHAPLVASTPAGRIVESFDDERDPLQAQLFENPHKMSEGWIHLNKKPGLGLEISDAALKKFGKLVYKNK”, the “soluble on expression in E. coli” value was “soluble”. For “SLGRQVYNFNPGWRFFKGDIRGAEAVNFDDRSWEVVSTPHTVELMPAEGSGCRNYQGPAWYRKHFVVPTATKGQRVLLHFEAAMGKQVLYLNGKRVQEHLGGYLPFTLDLTANGVQAGDSCLLAVYTDNSNDKSYPPGKPQYTLDFAYHGGIYRDVWMIAKSPVAITDAIDSRTVGGGGVFVHFDKISEKSAQVYVETEIQNDNTRSESVTIETTLTDAEGNVIKRTSGKLSLNSGEKKSIRQQMEVRNPKLWSPDAPYLYRVQSRIKKGNRSIDGGTTRIGIRLAEFRGKEGFWLNGKPFGQLVGANRHQDFAYVGNALPNSQQWRDAKRLRDAGCTIIRVAHYPQDPSFMDACDELGLFVIVATPGWQYWNKDPKFGELVHQNTREMIRRDRNHPSVLMWEPILNETRYPLDFALKALEITKEEYPYPGRPIAAADVHSAGVKEHYDVVYGWPGDDEKEDKPEQCIFTREFGENVDDWYAHNNNNRASRSWGERPLLIQALSLAKSYDEMYRTTGQFIGGTQWHPFDHQRGYHPDPYWGGIYDAFRQKKYAYEMFRSQSPASLQHPLAECGPMIFLAHEMSQFSDKDVVVFSNCDSIRLSIYDGTKTWTKPVVHAKGHMPNAPVIFENVWDFWEARGYSYTQKNWQKVNMVAEGIIDGKVVCTQKKMPSRRSTKLRLYADTQKVNLVADGSDFIVVVAEVTDDSGNVRRLAKENIVFTVEGEGEIIGDARIGANPRAVEFGSAPLLIRSTRKAGKIKVKAHVQFEGTQAPTAAEMEFESVPAELPFCYDEKEG”, the “soluble on expression in E. coli” value was “not soluble”. With “MAHHHHHHMSSLKYIENSINSNIRVDGRTLSTYRTIEINKNILVSADGSSSVMNEENNVICGIKLSLLTPSLDAPDEGVINLQIDCPASVVANRIKKDHLQIMSSIIYDLCLKNNIDRKKMCILPSTFVWGVDINVMVLNAGGGLLDIISMAIYVALKDTVVPVVKPKKKIDESNTFHHTKCADYQVEIVENQKTNFPYENVPICVSIGEINNKYVYDMSKVEEELVENIFVVAVTSSGKCVAFHKLYGISMEIASILNMTENSSRISHHLFEKINEAIAKIETRSVLV” the “soluble on expression in E. coli” value was “not soluble”. In the case of “MGSDKIHHHHHHMFDWEDLRHFSAFSSAGSLSAAAKTLGVDHATVARRIASLEASLQLKLVDRRPRAYALTHEGQRVAELAEQMAMSSFALEHFASAGQQTVEGEVVLSAPPALLGSIIARRLGELYQRYPQLRLKLVGSKSKASLVRREADISIALARPTEPTLVVSLLGHLDYRLYASPGYLASATVRRYIGYDESQARSPQQQWLNLQAGQQPFALHSNDLRIQAQACAGGIGIACLPAFMAQEHGLKEAGSAQQTMSIEIWLAVHEDVRATPRIKAVTDFLQQQVRPLLRL”, the “soluble on expression in E. coli” value is reported as “not soluble”. For “TSALIERIDAIIVDLPTIRPHKLAMHTMQQQTLVVLRVRCSDGVEGIGEATTIGGLAYGYESPEGIKANIDAHLAPALIGLAADNINAAMLKLDALAKGNTFAKSGIESALLDAQGKRLGLPVSELLGGRVRDSLEVAWTLASGDTARDIAEARHMLEIRRHRVFKLKIGANPVEQNLKHVVTIKRELGDSASVRVDVNQYWDESQAIRACQVLGDNGIDLIEQPISRINRGGQVRLNQRTPAPIMADESIESVEDAFSLAADGAASIFALKIAKNGGPRAVLRTAQIAEAAGIGLYGGTMLEGSIGTLASAHAFLTLRQLTWGTELFGPLLLTEEIVNEPPQYRDFQLHIPRTPGLGLTLDEARLARFARR”, the “soluble on expression in E. coli” value was “soluble”. For “MGSDKIHHHHHHVSGPGLLPFRLTICGIDELPDHAAAGVSHVVTILDPQWPDPEHFALYPPHSRTIWRFHDIVNPQEGQAHPTMRDVEAILDYGTALKTETVEHLLIHCHMGISRSTATAIILMAQHNPGREAEAFTHLKAIRPFSWPNSRMVRMADDQLKRKGALVDAMRLHHHGVARRHPDKMAYLRTSERAAEVPPEE”, the “soluble on expression in E. coli” value was “not soluble”. In the case of “MTSGTSVINDKVLQYETFISEVLRRDLQKVLEQRDAVYEKIAQYLQLKNTIQSIQESGSKELKTDVDLGCNFYVQAHVPDASRIYVAVGYGFFVEFTHAEALKFIEKKTNQLTEYTEVLTKDAAKIKANIRMVLEGLRELQGLKDLPEDRRREVF”, the “soluble on expression in E. coli” value is reported as “not soluble”. For “MKFSVLTLFPQLVWPYFEDSILKRALEKNLFELEVLNLRDFSANKYQKADHTLIGGGAGQILDPEMVENALHSVKNPKHTIFLSAVGKPFKQTDAMRLAQKKHVVLVCGRYEGFDERSIELGADEVFCIGDFILTGGELGALCLIDSIARHIQGVLGNAQSLENESFENHYLEAPNFANAVFKSKEINKIPAPLEYSKGNHAKIKQLKLDLSKLRTKFYRLDLFKQHKSLEHHHHHH”, the “soluble on expression in E. coli” value was “not soluble”. With “MGSDKIHHHHHHMKNMTLDSLDMLSANILVNLYEKHSASSVAMEMNIPAPKVSRCLQHARMIFNDPLFIRKKHGLEPNEFTRQLYPLVKALVQCGEQLQQLESCHDLAASQVMVLYVSDLLIAELPQRLSSAISEAQLPISYELRTGSVDLVEDLAQGLVDLAIVSESSDRALQDDRLIVSPLTELTHLYLLCSHKHPLLQQEISLGNIANYPYLSAFGQLDKQAPDPFQRYCAQQRLSCHLAPVELGREGLAFHQLYRYLSDDKTVSLLPYSRVYEHSEQLPGLHVCCLSGMDTARLYRDQPYPRLYMLSRSGRGGAHLEWMKQEIGQLIKQNVH” the “soluble on expression in E. coli” value was “not soluble”. With “MPLDPQIKPILERIRALSIAASPQELRRQVEEQSRLLTAAVQEPIAETRDVHIPVSGGSIRARVYFPKKAAGLPAVLYYHGGGFVFGSIETHDHICRRLSRLSDSVVVSVDYRLAPEYKFPTAVEDAYAALKWVADRADELGVDPDRIAVAGDSAGGNLAAVVSILDRNSGEKLVKKQVLIYPVVNMTGVPTASLVEFGVAETTSLPIELMVWFGRQYLKRPEEAYDFKASPLLADLGGLPPALVVTAEYDPLRDEGELYAYKMKASGSRAVAVRFAGMVHGFVSFYPFVDAGREALDLAAASIRSGLQPS” the “soluble on expression in E. coli” value was “soluble”. For “MGSDKIHHHHHHMQSLSSHYHQLLGLPSNWEVENVNLSMSSRQVEIRLAFTGKQGECPICGQSCLIYDHAAEQRWRHLDTMQFETILVARLPRCQCKEHGVKTVQAPWAARHSRFTLLFESFAVELLLHCANIKAASRLLRLNWHTVNQIMRRAVQRGLVRRKTETVEYLGIDEKSFKAGQHDVTTLTDLGERRVLEVVEHRTTEATKELLASLNDSQQAGVKAVSVDMWKPFIHAVQELLPKADLVHDRFHISKYLNEAVDLVRRKECRQLDKAGDKRLIGSTYVWLRNPENMGEQQQAELGKLMDAEFRTGKAWSLKNMFRAFWQLGCADAGTFFFEYWSKRIDEVGLVPLTKVKELLQRHFGNVLTWFKHPITNAVSEGLNSKIQIVKASARGFHRFESYRIRILFYCGKLNMAIGS”, the “soluble on expression in E. coli” value was “not soluble”. With “MNLQAREGAPLNRYYDPYFACDAVKLLPGEYFASGEDLVIVTVLGSCVSVCLRDPLNGIAGMNHFMLPERGLGGDPASPSARYGSHAMELLINRMLALGASRERLQAKVFGGGSVLRQISAAIGQRNVEFTLDYLATERIPLLASDVLEAFPRKIYFFPRNGRVLVKSLVELKNDTVLQRERDYRRRIDRNADGGPIDLF” the “soluble on expression in E. coli” value was “not soluble”. For “IIHEVQKEEACGNLTLQHHMLEPVQRIPRYELLLKDYLLKLPHGSPDSKDAQKSLELIATAAEHSNAAIRKMERMHKLLKVYELLGGEEDIVSPTKELIKEGHILKLSAKNGTTQDRYLILFNDRLLYCVPRLRLLGQKFSVRARIDVDGMELKESSNLNLPRTFLVSGKQRSLELQARTEEEKKDWVQAINSTLLKHEQTLETFKLLNSTNREDEDTPPNSPNVDLGKRAPTPIREKEVTMCMRCQEPFNSITKRRHHCKACGHVVCGKCSEFRARLVYDNNRSNRVCTDCYVALHGVPGSSPACSQHTPQRRRSILEKQASVAAENSVICSFLHYMEKGGKGWHKAWFVVPENEPLVLYIYGAPQDVKAQRSLPLIGFEVGPPEAGERPDRRHVFKITQSHLSWYFSPETEELQRRWMAVLGRAGRGDTFCPGPTLSEDREMEEAPVAALGATAEPPESPQTRDKT”, the “soluble on expression in E. coli” value was “soluble”. In the case of “MGSDKIHHHHHHMFLKNAWYVAAWDHEVRTDLQQIMVLGEKICMFRTQSGDLVALEDACPHRKLPLSKGRIKGDTVECGYHGLTFNCAGTCVWAPGASGIPSNARVHAYPLAEKYGLIWIWMGNPALADPSDIFEIENYGNPDWGINRGAAMELDCNYLLMCDNLLDPTHVAWVHQSSFAAEATKDTPLHVTKTDTGIIVHRWMMDHDPAPFYKKVVEFDGNCDRLQHYEVRYPSHALVRAVFTPAGTGGPDGPLHANTFIMDSYNFMTPVSEGKTRYYWFQLRNIRPDDEALSQMMSDDVHHAFEEDRAVLNEVQIGMSSKTSPHIDLPIDGGQLRFRRQLQAMINEEAQVDAQMAE”, the “soluble on expression in E. coli” value is reported as “not soluble”.
